In the Human Domainome abundance scans (Beltran et al. 2025):
± gives the uncertainty stated by the source.

Assay: abundance fitness (aPCA) (normalised: wild type 0, dead -1); higher = more abundant; growth selection in yeast, the domain comes from the species named
Conditions: Homo sapiens

| Substance | abundance fitness |
| --- | --- |
| E3 ubiquitin-protein ligase NEDD4-like T209S, Q96PU5 | 0.036 ± 0.073 |
| E3 ubiquitin-protein ligase NEDD4-like T209V, Q96PU5 | -0.079 ± 0.067 |
| E3 ubiquitin-protein ligase NEDD4-like T209Y, Q96PU5 | -0.649 ± 0.11 |
| E3 ubiquitin-protein ligase NEDD4-like T218A, Q96PU5 | -0.045 ± 0.057 |
| E3 ubiquitin-protein ligase NEDD4-like T218C, Q96PU5 | -0.031 ± 0.076 |
| E3 ubiquitin-protein ligase NEDD4-like T218D, Q96PU5 | -0.347 ± 0.096 |
| E3 ubiquitin-protein ligase NEDD4-like T218E, Q96PU5 | -0.122 ± 0.062 |
| E3 ubiquitin-protein ligase NEDD4-like T218F, Q96PU5 | -0.028 ± 0.084 |
| E3 ubiquitin-protein ligase NEDD4-like T218G, Q96PU5 | -0.146 ± 0.061 |
| E3 ubiquitin-protein ligase NEDD4-like T218H, Q96PU5 | -0.017 ± 0.1 |
| E3 ubiquitin-protein ligase NEDD4-like T218I, Q96PU5 | -0.118 ± 0.096 |
| E3 ubiquitin-protein ligase NEDD4-like T218K, Q96PU5 | -0.06 ± 0.072 |
| E3 ubiquitin-protein ligase NEDD4-like T218M, Q96PU5 | -0.128 ± 0.089 |
| E3 ubiquitin-protein ligase NEDD4-like T218N, Q96PU5 | -0.244 ± 0.11 |
| E3 ubiquitin-protein ligase NEDD4-like T218Q, Q96PU5 | -0.218 ± 0.095 |
| E3 ubiquitin-protein ligase NEDD4-like T218R, Q96PU5 | -0.184 ± 0.058 |
| E3 ubiquitin-protein ligase NEDD4-like T218S, Q96PU5 | -0.236 ± 0.07 |
| E3 ubiquitin-protein ligase NEDD4-like T218V, Q96PU5 | 0.092 ± 0.056 |
| E3 ubiquitin-protein ligase NEDD4-like T218W, Q96PU5 | -0.084 ± 0.075 |
| E3 ubiquitin-protein ligase NEDD4-like T218Y, Q96PU5 | 0.211 ± 0.1 |
| E3 ubiquitin-protein ligase NEDD4-like T219A, Q96PU5 | -0.28 ± 0.057 |
| E3 ubiquitin-protein ligase NEDD4-like T219C, Q96PU5 | -0.137 ± 0.09 |
| E3 ubiquitin-protein ligase NEDD4-like T219D, Q96PU5 | -0.595 ± 0.085 |
| E3 ubiquitin-protein ligase NEDD4-like T219E, Q96PU5 | -0.145 ± 0.068 |

| Substance | abundance fitness |
| --- | --- |
| E3 ubiquitin-protein ligase NEDD4-like T219F, Q96PU5 | -0.577 ± 0.075 |
| E3 ubiquitin-protein ligase NEDD4-like T219G, Q96PU5 | -0.632 ± 0.055 |
| E3 ubiquitin-protein ligase NEDD4-like T219H, Q96PU5 | -0.232 ± 0.099 |
| E3 ubiquitin-protein ligase NEDD4-like T219I, Q96PU5 | -0.56 ± 0.081 |
| E3 ubiquitin-protein ligase NEDD4-like T219K, Q96PU5 | -0.157 ± 0.099 |
| E3 ubiquitin-protein ligase NEDD4-like T219L, Q96PU5 | -0.623 ± 0.076 |
| E3 ubiquitin-protein ligase NEDD4-like T219M, Q96PU5 | -0.285 ± 0.091 |
| E3 ubiquitin-protein ligase NEDD4-like T219N, Q96PU5 | -0.221 ± 0.067 |
| E3 ubiquitin-protein ligase NEDD4-like T219P, Q96PU5 | -0.38 ± 0.1 |
| E3 ubiquitin-protein ligase NEDD4-like T219R, Q96PU5 | -0.3 ± 0.057 |
| E3 ubiquitin-protein ligase NEDD4-like T219S, Q96PU5 | -0.189 ± 0.086 |
| E3 ubiquitin-protein ligase NEDD4-like T219V, Q96PU5 | -0.348 ± 0.063 |
| E3 ubiquitin-protein ligase NEDD4-like T219W, Q96PU5 | -0.598 ± 0.075 |
| E3 ubiquitin-protein ligase NEDD4-like T219Y, Q96PU5 | -0.451 ± 0.089 |
| E3 ubiquitin-protein ligase NEDD4-like V203A, Q96PU5 | 0.023 ± 0.063 |
| E3 ubiquitin-protein ligase NEDD4-like V203C, Q96PU5 | -0.066 ± 0.097 |
| E3 ubiquitin-protein ligase NEDD4-like V203D, Q96PU5 | -0.143 ± 0.073 |
| E3 ubiquitin-protein ligase NEDD4-like V203E, Q96PU5 | -0.033 ± 0.068 |
| E3 ubiquitin-protein ligase NEDD4-like V203F, Q96PU5 | -0.055 ± 0.069 |
| E3 ubiquitin-protein ligase NEDD4-like V203G, Q96PU5 | -0.424 ± 0.053 |
| E3 ubiquitin-protein ligase NEDD4-like V203H, Q96PU5 | 0.016 ± 0.11 |
| E3 ubiquitin-protein ligase NEDD4-like V203I, Q96PU5 | -0.293 ± 0.097 |
| E3 ubiquitin-protein ligase NEDD4-like V203K, Q96PU5 | -0.064 ± 0.078 |
| E3 ubiquitin-protein ligase NEDD4-like V203M, Q96PU5 | -0.096 ± 0.059 |

| Substance | abundance fitness |
| --- | --- |
| E3 ubiquitin-protein ligase NEDD4-like V203P, Q96PU5 | -0.368 ± 0.07 |
| E3 ubiquitin-protein ligase NEDD4-like V203Q, Q96PU5 | 0.019 ± 0.093 |
| E3 ubiquitin-protein ligase NEDD4-like V203R, Q96PU5 | 0.007 ± 0.054 |
| E3 ubiquitin-protein ligase NEDD4-like V203S, Q96PU5 | -0.144 ± 0.066 |
| E3 ubiquitin-protein ligase NEDD4-like V203T, Q96PU5 | -0.115 ± 0.092 |
| E3 ubiquitin-protein ligase NEDD4-like V203W, Q96PU5 | -0.347 ± 0.078 |
| E3 ubiquitin-protein ligase NEDD4-like V203Y, Q96PU5 | -0.227 ± 0.11 |
| E3 ubiquitin-protein ligase NEDD4-like V212A, Q96PU5 | -0.102 ± 0.069 |
| E3 ubiquitin-protein ligase NEDD4-like V212C, Q96PU5 | -0.097 ± 0.076 |
| E3 ubiquitin-protein ligase NEDD4-like V212D, Q96PU5 | -0.458 ± 0.094 |
| E3 ubiquitin-protein ligase NEDD4-like V212E, Q96PU5 | -0.068 ± 0.057 |
| E3 ubiquitin-protein ligase NEDD4-like V212G, Q96PU5 | -0.417 ± 0.053 |
| E3 ubiquitin-protein ligase NEDD4-like V212H, Q96PU5 | -0.207 ± 0.12 |
| E3 ubiquitin-protein ligase NEDD4-like V212I, Q96PU5 | -0.356 ± 0.12 |
| E3 ubiquitin-protein ligase NEDD4-like V212K, Q96PU5 | -0.974 ± 0.18 |
| E3 ubiquitin-protein ligase NEDD4-like V212M, Q96PU5 | -0.076 ± 0.076 |
| E3 ubiquitin-protein ligase NEDD4-like V212N, Q96PU5 | -0.47 ± 0.15 |
| E3 ubiquitin-protein ligase NEDD4-like V212P, Q96PU5 | -0.485 ± 0.11 |
| E3 ubiquitin-protein ligase NEDD4-like V212R, Q96PU5 | -0.196 ± 0.057 |
| E3 ubiquitin-protein ligase NEDD4-like V212S, Q96PU5 | -0.347 ± 0.071 |
| E3 ubiquitin-protein ligase NEDD4-like V212T, Q96PU5 | -0.225 ± 0.094 |
| E3 ubiquitin-protein ligase NEDD4-like V212W, Q96PU5 | -0.183 ± 0.083 |
| E3 ubiquitin-protein ligase NEDD4-like V212Y, Q96PU5 | -0.003 ± 0.15 |
| E3 ubiquitin-protein ligase NEDD4-like V229A, Q96PU5 | -0.001 ± 0.064 |

| Substance | abundance fitness |
| --- | --- |
| E3 ubiquitin-protein ligase NEDD4-like V229C, Q96PU5 | -0.203 ± 0.084 |
| E3 ubiquitin-protein ligase NEDD4-like V229D, Q96PU5 | 0.019 ± 0.068 |
| E3 ubiquitin-protein ligase NEDD4-like V229E, Q96PU5 | 0.003 ± 0.077 |
| E3 ubiquitin-protein ligase NEDD4-like V229F, Q96PU5 | -0.057 ± 0.099 |
| E3 ubiquitin-protein ligase NEDD4-like V229G, Q96PU5 | 0.036 ± 0.057 |
| E3 ubiquitin-protein ligase NEDD4-like V229H, Q96PU5 | -0.263 ± 0.1 |
| E3 ubiquitin-protein ligase NEDD4-like V229I, Q96PU5 | -0.013 ± 0.099 |
| E3 ubiquitin-protein ligase NEDD4-like V229K, Q96PU5 | -0.111 ± 0.095 |
| E3 ubiquitin-protein ligase NEDD4-like V229L, Q96PU5 | 0.057 ± 0.056 |
| E3 ubiquitin-protein ligase NEDD4-like V229N, Q96PU5 | -0.007 ± 0.11 |
| E3 ubiquitin-protein ligase NEDD4-like V229Q, Q96PU5 | -0.133 ± 0.1 |
| E3 ubiquitin-protein ligase NEDD4-like V229R, Q96PU5 | -0.016 ± 0.061 |
| E3 ubiquitin-protein ligase NEDD4-like V229S, Q96PU5 | 0.033 ± 0.067 |
| E3 ubiquitin-protein ligase NEDD4-like V229T, Q96PU5 | 0.018 ± 0.065 |
| E3 ubiquitin-protein ligase NEDD4-like V229W, Q96PU5 | -0.164 ± 0.06 |
| E3 ubiquitin-protein ligase NEDD4-like W199A, Q96PU5 | -0.535 ± 0.086 |
| E3 ubiquitin-protein ligase NEDD4-like W199C, Q96PU5 | -0.25 ± 0.098 |
| E3 ubiquitin-protein ligase NEDD4-like W199D, Q96PU5 | -0.744 ± 0.1 |
| E3 ubiquitin-protein ligase NEDD4-like W199E, Q96PU5 | -0.275 ± 0.083 |
| E3 ubiquitin-protein ligase NEDD4-like W199F, Q96PU5 | 0.004 ± 0.079 |
| E3 ubiquitin-protein ligase NEDD4-like W199G, Q96PU5 | -0.413 ± 0.063 |
| E3 ubiquitin-protein ligase NEDD4-like W199I, Q96PU5 | -0.462 ± 0.13 |
| E3 ubiquitin-protein ligase NEDD4-like W199L, Q96PU5 | -0.502 ± 0.058 |
